{
  "source": "paper PMC5934765",
  "binders": {"B1": {"name": "SERCA2 in SH-SY5Y cells, P16615 1-1042 (enzyme)", "chain": "MENAHTKTVEEVLGHFGVNESTGLSLEQVKKLKERWGSNELPAEEGKTLLELVIEQFEDLLVRILLLAACISFVLAWFEEGEETITAFVEPFVILLILVANAIVGVWQERNAENAIEALKEYEPEMGKVYRQDRKSVQRIKAKDIVPGDIVEIAVGDKVPADIRLTSIKSTTLRVDQSILTGESVSVIKHTDPVPDPRAVNQDKKNMLFSGTNIAAGKAMGVVVATGVNTEIGKIRDEMVATEQERTPLQQKLDEFGEQLSKVISLICIAVWIINIGHFNDPVHGGSWIRGAIYYFKIAVALAVAAIPEGLPAVITTCLALGTRRMAKKNAIVRSLPSVETLGCTSVICSDKTGTLTTNQMSVCRMFILDRVEGDTCSLNEFTITGSTYAPIGEVHKDDKPVNCHQYDGLVELATICALCNDSALDYNEAKGVYEKVGEATETALTCLVEKMNVFDTELKGLSKIERANACNSVIKQLMKKEFTLEFSRDRKSMSVYCTPNKPSRTSMSKMFVKGAPEGVIDRCTHIRVGSTKVPMTSGVKQKIMSVIREWGSGSDTLRCLALATHDNPLRREEMHLEDSANFIKYETNLTFVGCVGMLDPPRIEVASSVKLCRQAGIRVIMITGDNKGTAVAICRRIGIFGQDEDVTSKAFTGREFDELNPSAQRDACLNARCFARVEPSHKSKIVEFLQSFDEITAMTGDGVNDAPALKKAEIGIAMGSGTAVAKTASEMVLADDNFSTIVAAVEEGRAIYNNMKQFIRYLISSNVGEVVCIFLTAALGFPEALIPVQLLWVNLVTDGLPATALGFNPPDLDIMNKPPRNPKEPLISGWLFFRYLAIGCYVGAATVGAAAWWFIAADGGPRVSFYQLSHFLQCKEDNPDFEGVDCAIFESPYPMTMALSVLVTIEMCNALNSLSENQSLLRMPPWENIWLVGSICLSMSLHFLILYVEPLPLIFQITPLNVTQWLMVLKISLPVILMDETLKFVARNYLEPGKECVQPATKSCSFSACTDGISWPFVLLIMPLVIWVYSTDTNFSDMFWS"}},
  "target": "α-synuclein (AS) expressed in non-mitotic SH-SY5Y cells, P37840",
  "experiment": "proximity ligation",
  "conditions": "remark: other sources report otherwise",
  "data": [
    {"binder": "B1", "values": [
      {"measurement": "reduction of the PLA signal by 0.5 μM CPA", "value": 50, "unit": "%"}
    ]}
  ]
}
